From patent US10487308B2, “Culture medium composition” (NISSAN CHEMICAL CORPORATION, priority 2014, dated 2019)

Assay: Viscosity measurement and state of medium composition
Type: physicochemical
Conditions: for viscosity: 37° C., 100 rpm
Description: Deacylated gellan gum (KELCOGEL CG-LA, manufactured by SANSHO Co., Ltd.) was suspended in pure water to 0.4% (w/v), and dissolved by stirring with heating at 90° C. This aqueous solution was allowed to cool to room temperature with stirring, and sterilized at 121° C. for 20 min in an autoclave. A 2-fold concentration of DMEM/F-12 medium (manufactured by Aldrich, 50 mL) and sterilization water (47.5 mL) were placed in a 300 mL tall beaker with stirring by a homomixer (3000 rpm) at room temperature, aqueous deacylated gellan gum solution (2.5 mL) was added, and the mixture was continuously stirred for 1 min to prepare a deacylated gellan gum medium composition with a final concentration of 0.01%. Medium compositions added with aqueous deacylated gellan gum solution with final concentrations of 0.02, 0.03 and 0.05% (w/v) were similarly prepared. The viscosity of the medium compositions was measured using an E type viscometer (manufactured by Toki Sangyo Co., Ltd., Viscometer TVE-22 L, standard roter 1° 34′×R24) under 37° C. condition at 100 rpm for 5 min.
The medium compositions prepared above were subjected to a suspension test of HeLa cell spheres and a viscosity measurement, in the same manner as with the deacylated gellan gum-containing medium. The viscosity of 1.0% (w/v) methylcellulose was measured at 50 rpm due to the measurement range of the apparatus.
In the same manner as in Reference Experimental Example 2, spheres of HeLa cells were formed, and several tens of the spheres were added to each medium (1 mL) prepared above, the mixture was stood still at 37° C. for 1 hr, and the suspended state of the sphere cells was visually observed. […] Furthermore, it was confirmed that addition of an equal amount of the medium to the cell suspension and centrifugation (300 to 400G, for 5 min) thereof result in sedimentation and recovery of the spheres of HeLa cells.
By a method similar to that for the polysaccharide mixture of Reference Experimental Example 9, DMEM/F-12 media containing deacylated gellan gum at a final concentration of 0.005, 0.01% (w/v) and other polysaccharide were prepared. The final concentration of polysaccharide was set to 0.1% (w/v) for xanthan gum, sodium alginate, locust bean gum, 0.2% (w/v) for methylcellulose, and 0.05% (w/v) for K-carageenan and diutan gum. The state of each medium composition and the viscosity measured by a method similar to that in Analysis Example 1 are shown in Tables 11-16.

In the case of collagen, the state (0.01% (w/v) in DMEM/F-12) is reported as “liquid”, the state (0.05% (w/v) in DMEM/F-12) is reported as “liquid/solid” and the viscosity (0.05% (w/v) in DMEM/F-12) is reported as “unmeasurable”. For the same substance, the state (0.1% (w/v) in DMEM/F-12) was “solid (gel)”, the viscosity (0.1% (w/v) in DMEM/F-12) was “unmeasurable” and the state (0.2% (w/v) in DMEM/F-12) was “solid (gel)”. For the same substance, the viscosity (0.2% (w/v) in DMEM/F-12) was “unmeasurable”.
